In patent US20090158456:

Assays:
[1] = system: recombinant GST-CcHQT fusion protein (pGTPc103a_HQT)
[2] = system: recombinant GST-CcHCT fusion protein (pGTPc103a_HCT)

Substance: AcTEV protease
- SDS PAGE gel electrophoresis and coomassie staining after AcTEV digestion [1]: generate a smaller polypeptide with the expected molecular weight of the full length proteins from each of the GST-tagged "precursor" proteins
- SDS PAGE gel electrophoresis and coomassie staining after AcTEV digestion [2]: generate a smaller polypeptide with the expected molecular weight of the full length proteins from each of the GST-tagged "precursor" proteins
